Patent US20210277066A1 (BRIGHAM AND WOMEN S HOSPITAL, published 2021)

Biological target: T1, mouse LY6A (mouse, UniProt P05533 27-112)
T1 construct: whole, on cells; Over-expressed on HEK293T cells
T1 sequence: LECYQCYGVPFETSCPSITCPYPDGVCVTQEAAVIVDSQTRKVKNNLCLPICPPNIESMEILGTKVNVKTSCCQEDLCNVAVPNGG
Assay: AAV binding to LY6A-transfected HEK293T cells on ice; bound viral genomes counted by qPCR

Binder | binding result
AAV.CPP.21 (other, Tested as a whole recombinant AAV particle (rAAV-mCherry); also called Bip2.6 insert TVSALFK) MAADGYLPDWLEDNLSEGIREWWALKPGAPQPKANQQHQDNARGLVLPGYKYLGPGNGLDKGEPVNAADAAALEHDKAYDQQLKAGDNPYLKYNHADAEFQERLKEDTSFGGNLGRAVFQAKKRLLEPLGLVEEAAKTAPGKKRPVEQSPQEPDSSAGIGKSGAQPAKKRLNFGQTGDTESVPDPQPIGEPPAAPSGVGSLTMASGGGAPVADNNEGADGVGSSSGNWHCDSQWLGDRVITTSTRTWALPTYNNHLYKQISNSTSGGSSNDNAYFGYSTPWGYFDFNRFHCHFSPRDWQRLINNNWGFRPKRLNFKLFNIQVKEVTDNNGVKTIANNLTSTVQVFTDSDYQLPYVLGSAHEGCLPPFPADVFMIPQYGYLTLNDGSQAVGRSSFYCLEYFPSQMLRTGNNFQFSYEFENVPFHSSYAHSQSLDRLMNPLIDQYLYYLSKTINGSGQNQQTLKFSVAGPSNMAVQGRNYIPGPSYRQQRVSTTVTQNNNSEFAWPGASSWALNGRNSLMNPGPAMASHKEGEDRFFPLSGSLIFGKQGTGRDNVDADKVMITNEEEIKTTNPVATESYGQVATNHQSAQTVSALFKAQAQTGWVQNQGILPGMVWQDRDVYLQGPIWAKIPHTDGNFHPSPLMGGFGMKHPPPQILIKNTPVPADPPTAFNKDKLNSFITQYSTGQVSVEIEWELQKENSKRWNPEIQYTSNYYKSNNVEFAVNTEGVYSEPRPIGTRYLTRNL | no binding (tested: MOI of 10000)
AAV.CPP.16 (other, Tested as a whole recombinant AAV particle (rAAV-mCherry); also called Bip2.1 insert TVSALK) MAADGYLPDWLEDNLSEGIREWWALKPGAPQPKANQQHQDNARGLVLPGYKYLGPGNGLDKGEPVNAADAAALEHDKAYDQQLKAGDNPYLKYNHADAEFQERLKEDTSFGGNLGRAVFQAKKRLLEPLGLVEEAAKTAPGKKRPVEQSPQEPDSSAGIGKSGAQPAKKRLNFGQTGDTESVPDPQPIGEPPAAPSGVGSLTMASGGGAPVADNNEGADGVGSSSGNWHCDSQWLGDRVITTSTRTWALPTYNNHLYKQISNSTSGGSSNDNAYFGYSTPWGYFDFNRFHCHFSPRDWQRLINNNWGFRPKRLNFKLFNIQVKEVTDNNGVKTIANNLTSTVQVFTDSDYQLPYVLGSAHEGCLPPFPADVFMIPQYGYLTLNDGSQAVGRSSFYCLEYFPSQMLRTGNNFQFSYEFENVPFHSSYAHSQSLDRLMNPLIDQYLYYLSKTINGSGQNQQTLKFSVAGPSNMAVQGRNYIPGPSYRQQRVSTTVTQNNNSEFAWPGASSWALNGRNSLMNPGPAMASHKEGEDRFFPLSGSLIFGKQGTGRDNVDADKVMITNEEEIKTTNPVATESYGQVATNHQSAQTVSALKAQAQTGWVQNQGILPGMVWQDRDVYLQGPIWAKIPHTDGNFHPSPLMGGFGMKHPPPQILIKNTPVPADPPTAFNKDKLNSFITQYSTGQVSVEIEWELQKENSKRWNPEIQYTSNYYKSNNVEFAVNTEGVYSEPRPIGTRYLTRNL | no binding (tested: MOI of 10000)
